Kd data for two molecules are collected here from paper PMC8617373 (Cell Research, 2021).

In this assay the target is SARS-CoV-2 S-ECD-hFc (extracellular domain of the spike (S) protein, hFc-tagged) (SARS-CoV-2, UniProt P0DTC2 14-1213). Briefly: flow cytometry on cells.

B1: ASGR1 expressed on HEK293E cells (receptor)
chain: MTKEYQDLQHLDNEESDHHQLRKGPPPPQPLLQRLCSGPRLLLLSLGLSLLLLVVVCVIGSQNSQLQEELRGLRETFSNFTASTEAQVKGLSTQGGNVGRKMKSLESQLEKQQKDLSEDHSSLLLHVKQFVSDLRSLSCQMAALQGNGSERTCCPVNWVEHERSCYWFSRSGKAWADADNYCRLEDAHLVVVTSWEEQKFVQHHIGPVNTWMGLHDQNGPWKWVDGTDYETGFKNWRPEQPDDWYGHGLGGGEDCAHFTDDGRWNDDVCQRPYRWVCETELDKASQEPPLL
By Kd is commonly meant a measure of binding affinity in units of concentration. B1 gave a Kd of 94.8 nM.

B2: KREMEN1 expressed on HEK293E cells (receptor)
chain: ARPAPSPGLGPECFTANGADYRGTQNWTALQGGKPCLFWNETFQHPYNTLKYPNGEGGLGEHNYCRNPDGDVSPWCYVAEHEDGVYWKYCEIPACQMPGNLGCYKDHGNPPPLTGTSKTSNKLTIQTCISFCRSQRFKFAGMESGYACFCGNNPDYWKYGEAASTECNSVCFGDHTQPCGGDGRIILFDTLVGACGGNYSAMSSVVYSPDFPDTYATGRVCYWTIRVPGASHIHFSFPLFDIRDSADMVELLDGYTHRVLARFHGRSRPPLSFNVSLDFVILYFFSDRINQAQGFAVLYQAVKEELPQERPAVNQTVAEVITEQANLSVSAARSSKVLYVITTSPSHPPQTVPGSNSWAPPMGAGSHRVEGWTVYGLATLLILTVTAIVAKILLHVTFKSHRVPASGDLRDCHQPGTSGEIWSIFYKPSTSISIFKKKLKGQSQQDDRNPLVSD
In turn, B2 displayed a Kd of 19.3 nM. This Kd is about 4.9-fold lower than that of the molecule before.
